From article PMC3032006
Where two headings read alike, the source gives them in different places.

Key:
Test in all cases: AUC
[1] = target: myr(+)MACA-W184A/M185A (HIV-1 (pNL4-3 isolate))
[2] = target: myr(+)MACA-W184A/M185A (HIV-1 (pNL4-3 isolate)); remark: listed apart in the source
[3] = target: myristoylated HIV-1 matrix protein, myr(+)MA (HIV-1)
[4] = target: myristoylated HIV-1 matrix protein, myr(+)MA (HIV-1); remark: listed apart in the source
[5] = target: myristoylated HIV-1 matrix protein, myr(+)MA (HIV-1); remark: listed apart in the source
[6] = target: myristoylated HIV-1 matrix-capsid, myr(+)MACA (HIV-1 (pNL4-3 isolate))
[7] = target: myristoylated HIV-1 matrix-capsid, myr(+)MACA (HIV-1 (pNL4-3 isolate)); remark: listed apart in the source
[8] = target: myristoylated HIV-1 matrix-capsid, myr(+)MACA (HIV-1 (pNL4-3 isolate)); remark: listed apart in the source
[9] = target: myristoylated HIV-1 matrix-capsid, myr(+)MACA (HIV-1 (pNL4-3 isolate)); remark: listed apart in the source
[10] = target: unmyristoylated HIV-1 matrix-capsid, myr(−)MACA (HIV-1 (pNL4-3 isolate))
[11] = target: unmyristoylated HIV-1 matrix-capsid, myr(−)MACA (HIV-1 (pNL4-3 isolate)); remark: listed apart in the source
[12] = target: unmyristoylated HIV-1 matrix-capsid, myr(−)MACA (HIV-1 (pNL4-3 isolate)); remark: listed apart in the source

## myr(+)MACA-W184A/M185A (domain or fragment)
[1]
  stoichiometry N: 2
[2]
  stoichiometry N: 2

## myristoylated HIV-1 matrix protein, myr(+)MA (natural protein)
[3]
  stoichiometry N: 3
[4]
  stoichiometry N: 3
[5]
  fraction in the 2.4S (trimer) peak of c(s): 30%
  stoichiometry N: 3

## myristoylated HIV-1 matrix-capsid, myr(+)MACA (domain or fragment)
[6]
  stoichiometry N: 3
[7]
  stoichiometry N: 3
[8]
  stoichiometry N: 3
[9]
  Ka: 33000 M⁻¹
  fraction in the 4.3S (major) peak of c(s): 70%
  stoichiometry N: 2

## unmyristoylated HIV-1 matrix-capsid, myr(−)MACA (domain or fragment)
[10]
  Ka: 33000 M⁻¹
  stoichiometry N: 2
[11]
  Ka: 110000 M⁻¹
  stoichiometry N: 2
[12]
  stoichiometry N: 2
